assay: soluble on expression in E. coli; label from the status in PepcDB or PDB records

Sequence | soluble on expression in E. coli
MSDENLETESTSKALEDILSYTDSPAFRHIFSFFLGRPRIRAKSTLNLDILSEEVVIRKGKLIHTWQNARAVFYNSNIRLQTKNNQDEALQIRNMKVDVHESKRGRALRLKDDDVCYLIIFQRPNILEAWLTRAQQVEKSNHVDASDEQLTLIPEQILNNEARVQILNLRRNSLISRPPTEKSMAPLGYIDDLYRVHSLQVIDLSANQILSFPIQLTLLSHLRQLNLSSNYISSVPSECSNMRRLQYLNLSNNQLDTLPDSISELQNLQSLDISFNQFSQIPPCLFHLTLEMWRLAGNNIEKIDRVGEMQIQKIDLRRNVLDTSFRLDIENITHLDLRDNSMISTVHLTNLRFLKVIHCERLQLSSLHLSGESLTHVYADHNLLDSLVVMPLPQNLQTLSLSFNHFRNLPDWISDCPNLTFLRANNNSLVALPERIFYSQSLRSIFAFINEIEHIPDFGEENCLETLILYKNKLSSLPKHFFSILPRLRQLNISSNFIELLPYFDGSSFCRLQILRCANNYLTENSVPVIVNMKHLKIIDLSHNRLNSFDDSALSSLELLEDLNLSSNRLTRLADCLALLPCLQVLRAHSNQLVHVPEFRASNQLHTIDVSSNNISLGTLQFKAPPNLRHFDVTCNSGDFDTENFPENAKMHSKMNTINISEGSQNLFGFQIGVSGSRGMKNKQCIRQVRVENTFGFIDGGSNSYMSSSICRFMTSYLKENVSMDIRSILLRCHCELGEEGERLGASVMIIRVHEKRLEIASTGTMSAAIARNQKLKMIINGRYEIDDDEYSRIREAHGFVDEENRINGVIGSSRQIGHFSTFPVVLPTHSYRNIQLNEQIEGLIVGNNMIWNMLSIDDLNSTFHNNRSPIVVAKKIQDQLQSYDYGGNSNILVLRRIKPQMTFNGFSTSSTKNQVTPDIAIPKIDEQLVLAVPALILPEYHPSPPVPPPIPAIRHRTPSPPPPPLPSSTPPPVSSEHEEINVRQSSTLSGGYTLSIDRFYSSSSTVSSRKQFNETRDLLSKSLKLSPPNTVTFNI | not soluble
MSDGHHNGHEHVPSRQRRRFPGISSRAYEHPADRSALVALRKLSGFDTVFKALSGLLPERSLRLLFLSDSVRVSDRQFAHLNVMLRDACYILDLEKVPPMYVNQDPVPNAMCIGLDEPIIVVTTGLVELLDEEEMRAVVGHEVGHALSGHAVYRTILLFLTSLAVRVAWIPLGNVAIMAIVTALREWFRKSELSADRAGLLVGQDLQASMRGLMKIAGGNHLHEMNVDAFLEQAEEYEAGGDLRDSVLKILNVLPRSHPFTTVRAAELKKWAASRDYQRIMDGHYPRRDEDRNTSVRDSFRESASHYATHVRSSKDPLMKLVNDIAGGAGDLGDRMRRGFGGFTGSQPRPPEDDGGPAQGPGGSGRPDGPDRPEGPEGSGGSEEPGGDGPESPRDGSPRDGALEHHHHHH | not soluble
MSDGKIIHDPVHGSMKIPEELIKLVDTPEIQRLRYIRQLGLANLVYPGANHSRFEHSLGVWYLAKKLSSELDIPRDEALLVQISALLHDIGHGPFSHTFERVYKERLKIGDHMEISRKIIEGKIDIVENGGEIPDIISDLGYSPKEVGELICGVHKKKYLSMIINGDIDVDQLDYLARDAHYTGVAHGIIDLERLLNVMKIHDNELVVDEKGLEAVEGMLVARSLMYSRVYFHRTVKIAEAMLIKGVEFALDSGELFDFWKMTDDRLIVELEDIGGFPSEIIQKIRRRELYKPAVIVGPQDLTGDERRIIASLYKNTKKIRELENELADRVGASEGEVIIELSVPELIISEPRLKQIEISILLGDGKKEPLTKVTPLASAIKRRQTPRWILIIATPPNYVEKVKSVWRKVIF | not soluble
MSDHENTGENTSEYQYKQPPQKSIDELLNADKEDESLKVYKAKLLGQGTVIVDEKNPLRVIVRSVELLINGKTAQSFDLSDPAKLVNSDLSVSIKEGSNYRLSFAFHVQREITSGLHYKHKVKRSGITVENEKYMMGSYAPKLEIQEYKSPNEEAPSGMMHRGKYKVYSKITDDDNNVYLDWQWTLHITKE | not soluble
MSDIEAVVVSDLHLGYEEEMNLHGLFLPRIQRDHITSVMDRIIERYNPQRIIINGDFKQEFSKNLPSEWTDVLYFIDRYDDRDLIFIRGNHDNYLATILSKKNIGMMDFYEDDRYFIYHGDRNMGIKKITILGHEHPSLVLRDRVGGVYKLPAFAFNFRRNVIITPSMSFFSSGTDLSQSLLSEEHFTPALKGMKPSCFRIFAITDEFGLVDFGYLDDLHSSGEQQIRDR | not soluble
MSDILKCIGCGAPLQSEDKNKPGFVPEHNMFRDDVICRRCFRLKNYNEVQDVGLESEDFLKLLSGLADKKGIVVNVVDVFDFEGSFINAVKRIVGNKKIILAANKLDLLPKQINKRRVKEWLKRTARKYGLEADDVVLISAEKGWGIDDLLSSIANIRENEDVYIVGTTNVGKSTLINKLIEASVGEKDVVTTSRFPGTTLDMIDIPLDESSFMYDTPGIIQDHQMTHLVSEKELKIIMPKKEIKQRVYQLNEAQTLFFGGLARIDYVSGGKRPLVCFFSNDLNIHRTKTEKANDLWRNQLGDLLTPPGNPQNFDLNELKAVRLETGKEKRDVMISGLGFITIGPGAKVIVRVPKNVDVVLRNSILLEHHHHHH | soluble
MSDMYDKINELYDRRREIELGGGDEKIEQQHAKGKLTARERIDLLLDEGTFVELNPFIEHRCTDFGLGEKKGPGDGVVTGYGKINGRTVFVFSQDFTVFGGALGEMHAKKITNIMDLAAKTGAPVIGLNDSGGARIQEGVLSLDGYGHIFYRNAIYSGVIPQISVIMGPCAGGAVYSPAITDFVFMVEKTSQMFITGPKVIEAVTGEKISAEDLGGARVHNTISGNAHFAAANEEEALAEVRRLLGYLPSNNNEKPPFGPIPDGDDYRPDLADVVPIDAVRPYDVRHVIAQVVDDGSFMEVQKDFAKNIVIGFARIKGEVVGLVCNQPKFMAGGLDIDSSDKAARFIRFCDSFNIPIITFEDVTGFFPGVKQEHGGIIRHGAKILYAYSEATVPKITVILRKAYGGAYVALNSKSIGADVVYAWPNAEVAVMGPQGAANIIFAGEIEKSPNPEETRAQKIAEYREKFANPYVAAKYGMIDDVIDPRDTRIKLIQALEMLRNKHEERPKKKHGNIPL | not soluble
MSDNNTLRMAEMLDKQNSRQHDFMKLMMEMNNSARLSDQARDDRNAIRNENNLKEVFNKLIEAQKEESPIDISIKIRR | not soluble
MSDPKQKSDDLPEQVEQPEQGGGNDGQEEDVQMAEVSEQELERVRTLLHRDWMYSFTPERVRRYHLNRSDYLNEEIRHSQRAIRNALLGYKHASNSRKTCRTDLLDTTWILENLELVGRQLPRESSSQGNPNQESVQELHRQICQLFEDDALAVCERGHNQEVALDLASQVIATHMRTIREFQEEYFKVTGKKHELKKLEDNAYGVLLTPSPKRMPKNFQRRRSDGDDDDDGPGNWGNLNPVAPV | soluble
MSDPRDLMSEFQKLRVETSKIQNEFKEKPGYVEDKLHKNTQEICQQILKKQGKSQKSQENQNAFIENLMSELKTAKSKLNETENQISDLHEATKQQESQANLWNDLVAKISDKNLEMMLKIQKSQDLMIMKMQEGSAVQDVPIETEKSAKNGPFFEILVIWTDSRGPVVPGNHGKLRVCGSDTIRQIKPRINSLAGIDTISFRTFCDDKFLEDDHTLAHYNIREGSTICVFFH | not soluble
MSDPYMPLTSVRSGAGFEAAKGVHGLTVQIANVYFIQLPSEPHSFVLIDAGMPQSAGVIVNEAKQRFGEGFQLKAIILTHGHFDHIGAIEEILEHWDVPVYIHSREMPYVTGKEDYPPARPDSKSGLVAKLSPLFPRHSIDISSHVQALPEDGSVPFLDEWMWIATPGHTPGHISLFRDDGRVLVAGDAVITVEQEKMADVLIQKQELHGPPAYFTPDTETAAESILKLAGLEPEALLTGHGIPMTGKNFRSDLTELANRLSSILEHHHHHH | soluble
MSDQLQMTDGMHIIVEALKQNNIDTIYGVVGIPVTDMARHAQAEGIRYIGFRHEQSAGYAAAASGFLTQKPGICLTVSAPGFLNGLTALANATVNGFPMIMISGSSDRAIVDLQQGDYEELDQMNAAKPYAKAAFRVNQPQDLGIALARAIRVSVSGRPGGVYLDLPANVLAATMEKDEALTTIVKVENPSPALLPCPKSVTSAISLLAKAERPLIILGKGAAYSQADEQLREFIESAQIPFLPMSMAKGILEDTHPLSAAAARSFALANADVVMLVGARLNWLLAHGKKGWAADTQFIQLDIEPQEIDSNRPIAVPVVGDIASSMQGMLAELKQNTFTTPLVWRDILNIHKQQNAQKMHEKLSTDTQPLNYFNALSAVRDVLRENQDIYLVNEGANTLDNARNIIDMYKPRRRLDCGTWGVMGIGMGYAIGASVTSGSPVVAIEGDSAFGFSGMEIETICRYNLPVTIVIFNNGGIYRGDGVDLSGAGAPSPTDLLHHARYDKLMDAFRGVGYNVTTTDELRHALTTGIQSRKPTIINVVIDPAAGTESGHITKLNPKQVAGN | soluble
MSDSDSVGESSHPKKTAPKKEKASPKNKKDDANESMVMTEEDRNVFTSIDKKGGGSKQMAIVDIYQKKSQLEHILLRPDSYIGSIEHTEKKPMWVYNMEDSKLEQRDISYVPGLFKIYDEILVNAADNKQRDRKMNTIRVTINKAKNEISVYNNGKGIPVTQHKVEKVFVPELIFGSLLTSSNFVGNQKAMIGGRNGYGAKLCNIFSTKFTCETSSRVYKSAFKQTWINNMTRDEEPTIVPSTDEDFTKITFSPDLAKFKMKELDDDICHLMARRAYDVAATCKGVDVILNGEMISVKGFEDYVKMYTSQITFEGEPLKTVYEQIGNRWQVALALSDVGFQQISFANNVSTTKGGRHVDHVVDQMIARLKGSIKQELSKDVDPFMIENHLWVFVNCLIEWPTFDSQTKEMMTLRHDRFGSTCALSKKFCKTALQIGLIRQISREIGVDIRENLVQKASESSPIKCIPKLEDAKEAGTKTSERCTLIVTEGDSAKTLAISGLSVVGRDKFGVFPLRGKLLNVRDASVKQIAENAEVNAMIKILGLQRDLKYEFDDEFRTLRYGKLMIMADQDQDGSHIKGLIISFLHHFWPSLIQRNFVEEFITPIVKATKGKEEVSFYSLPEYSEWRTNTDNWKSYKIKYYKGLGTSTAKEAKE | not soluble
MSDSGRADALLAQLPREGRGRLKVFLGAAPGVGKTYAMLQAAHAQLRQGVRVMAGVVETHGRAETEALLNGLPQQPLLRTEYRGMTLEEMDLDALLKAAPSLVLVDELAHTNAPGSRHTKRWQDIQELLAAGIDVYTTVNVQHLESLNDQVRGITGVQVRETLPDWVLQEAFDLVLIDLPPRELLERLRDGKVYVPEQARAAIDAFFTQTNLTALREMAMQTAAAQV | not soluble
MSDTHGKFIWVELMTPDMEAAARFYGHVVGWQTKDFGSPEMPYLVLEADGKGMGGVMELTEEHKGQGIPPNWTAYVDVDDVDATAKLFADKGGAIRRPPQDIPEIGRFAVVADPYGAVLCIMTPLPMETGGFPEDMQEKKGHVGWYELFTDNVDEAMAFYGEVFGWTKDHDFDMGEMGPYRIFAHKGKAVGGIMKRMPQVPVCHWGYYFNVDGIEDAITRVSTGGGKVVNGPMEVPGESWIVNCVDPQGAYFSLVSQKK | not soluble
MSDTPSKKQKRRATIFVTGPQSKKTIFEGEEIKEEGNQTTLQDLAIARQRLHNELAVVNTTSGIEILMQIVMDELEVVRHRLRENGQRMRNFFGDGAVQIRAILIRIFSKSISSRNMLEYKKDAKVILNELCDQNITYKMPRYTLNDMEEILLTDDLEDGVIQRRSEKWECLPERQKPMFDEDEDAFCEFRKMNVPMSMTFDDDDEDRLSMPSTRTGVTALTTEDQMAAIQNQLAMLSKQLMCLQKSGVETKRASSRASSRRGGIIAKKASLEISSNSSSDVSEDEGKGPSVCSPSSSSKTSTASVQLAPMCMAPPPPPPPPLPKMSQKIPLSEIKSDNKLSTVTPSKPAEKKSSPKSLPPAETIVSNRPYLTDIAHGRSMLKKTVRSPGGSPACQVRHQKRPVSSFEAALRDRFRGFHGDASFSEQEENGEDDDLSATWDE | not soluble
MSDTVVASAAVQAPAKTVKSPKAAKTTKVPKAKKPVAHPPYINMVTAAINGLKERKGSSKIAILKYITKNYNVGDQIIKINARLRDTLNKGVVSKALVQSVGTGASGRFRVTEKKAAAAKKPVAKKAATGEKKAKKPVAQKAATGEKKAKKTTATKTKKTADKVKKVKSPKKIAKPTAKKVAKSPAKKSAPKKAAAAKPAKKAVAPKT | soluble

Source: the DeepSol protein solubility set
